The target of one data set is ABCA1 (Homo sapiens, UniProt O95477). In words: Chemical cross-linking of ABCA1, dimer:monomer ratio (SDS-PAGE). In kind it is cell-based. Details: expressed in transfected cells; host or cells: BHK cells, stably transfected, induced with 10 nM mifepristone. The method, then: Supplementary file pone.0131997.s004.tif: S3 Fig Chemical cross-linking of ABCA1 in intact BHK cells expressing ABCA1. BHK cells in 100-mm diameter dishes were stimulated with 10 nM mifepristone for 18–20 h. BHK cells expressing ABCA1 (100 μg of total protein) in the presence of apo A-I or CS-6253 at same molarity (0.96 μM) were cross-linked or not with 500 μM DSP. Cells were then lysed at 4°C with lysis buffer containing 0.5% n-dodecylmaltoside in the presence of a protease inhibitor mixture followed by low speed centrifugation to remove cell debris. The supernatants were treated or not with 50 mM DTT for 30 min at 37°C and then separated by SDS-PAGE (4–22.5%) in duplicate. After electrophoresis, ABCA1 was detected by an anti-ABCA1 antibody. GAPDH was used as loading control. (TIF) Click here for additional data file. […]
Sequence of ABCA1 (O95477 whole entry): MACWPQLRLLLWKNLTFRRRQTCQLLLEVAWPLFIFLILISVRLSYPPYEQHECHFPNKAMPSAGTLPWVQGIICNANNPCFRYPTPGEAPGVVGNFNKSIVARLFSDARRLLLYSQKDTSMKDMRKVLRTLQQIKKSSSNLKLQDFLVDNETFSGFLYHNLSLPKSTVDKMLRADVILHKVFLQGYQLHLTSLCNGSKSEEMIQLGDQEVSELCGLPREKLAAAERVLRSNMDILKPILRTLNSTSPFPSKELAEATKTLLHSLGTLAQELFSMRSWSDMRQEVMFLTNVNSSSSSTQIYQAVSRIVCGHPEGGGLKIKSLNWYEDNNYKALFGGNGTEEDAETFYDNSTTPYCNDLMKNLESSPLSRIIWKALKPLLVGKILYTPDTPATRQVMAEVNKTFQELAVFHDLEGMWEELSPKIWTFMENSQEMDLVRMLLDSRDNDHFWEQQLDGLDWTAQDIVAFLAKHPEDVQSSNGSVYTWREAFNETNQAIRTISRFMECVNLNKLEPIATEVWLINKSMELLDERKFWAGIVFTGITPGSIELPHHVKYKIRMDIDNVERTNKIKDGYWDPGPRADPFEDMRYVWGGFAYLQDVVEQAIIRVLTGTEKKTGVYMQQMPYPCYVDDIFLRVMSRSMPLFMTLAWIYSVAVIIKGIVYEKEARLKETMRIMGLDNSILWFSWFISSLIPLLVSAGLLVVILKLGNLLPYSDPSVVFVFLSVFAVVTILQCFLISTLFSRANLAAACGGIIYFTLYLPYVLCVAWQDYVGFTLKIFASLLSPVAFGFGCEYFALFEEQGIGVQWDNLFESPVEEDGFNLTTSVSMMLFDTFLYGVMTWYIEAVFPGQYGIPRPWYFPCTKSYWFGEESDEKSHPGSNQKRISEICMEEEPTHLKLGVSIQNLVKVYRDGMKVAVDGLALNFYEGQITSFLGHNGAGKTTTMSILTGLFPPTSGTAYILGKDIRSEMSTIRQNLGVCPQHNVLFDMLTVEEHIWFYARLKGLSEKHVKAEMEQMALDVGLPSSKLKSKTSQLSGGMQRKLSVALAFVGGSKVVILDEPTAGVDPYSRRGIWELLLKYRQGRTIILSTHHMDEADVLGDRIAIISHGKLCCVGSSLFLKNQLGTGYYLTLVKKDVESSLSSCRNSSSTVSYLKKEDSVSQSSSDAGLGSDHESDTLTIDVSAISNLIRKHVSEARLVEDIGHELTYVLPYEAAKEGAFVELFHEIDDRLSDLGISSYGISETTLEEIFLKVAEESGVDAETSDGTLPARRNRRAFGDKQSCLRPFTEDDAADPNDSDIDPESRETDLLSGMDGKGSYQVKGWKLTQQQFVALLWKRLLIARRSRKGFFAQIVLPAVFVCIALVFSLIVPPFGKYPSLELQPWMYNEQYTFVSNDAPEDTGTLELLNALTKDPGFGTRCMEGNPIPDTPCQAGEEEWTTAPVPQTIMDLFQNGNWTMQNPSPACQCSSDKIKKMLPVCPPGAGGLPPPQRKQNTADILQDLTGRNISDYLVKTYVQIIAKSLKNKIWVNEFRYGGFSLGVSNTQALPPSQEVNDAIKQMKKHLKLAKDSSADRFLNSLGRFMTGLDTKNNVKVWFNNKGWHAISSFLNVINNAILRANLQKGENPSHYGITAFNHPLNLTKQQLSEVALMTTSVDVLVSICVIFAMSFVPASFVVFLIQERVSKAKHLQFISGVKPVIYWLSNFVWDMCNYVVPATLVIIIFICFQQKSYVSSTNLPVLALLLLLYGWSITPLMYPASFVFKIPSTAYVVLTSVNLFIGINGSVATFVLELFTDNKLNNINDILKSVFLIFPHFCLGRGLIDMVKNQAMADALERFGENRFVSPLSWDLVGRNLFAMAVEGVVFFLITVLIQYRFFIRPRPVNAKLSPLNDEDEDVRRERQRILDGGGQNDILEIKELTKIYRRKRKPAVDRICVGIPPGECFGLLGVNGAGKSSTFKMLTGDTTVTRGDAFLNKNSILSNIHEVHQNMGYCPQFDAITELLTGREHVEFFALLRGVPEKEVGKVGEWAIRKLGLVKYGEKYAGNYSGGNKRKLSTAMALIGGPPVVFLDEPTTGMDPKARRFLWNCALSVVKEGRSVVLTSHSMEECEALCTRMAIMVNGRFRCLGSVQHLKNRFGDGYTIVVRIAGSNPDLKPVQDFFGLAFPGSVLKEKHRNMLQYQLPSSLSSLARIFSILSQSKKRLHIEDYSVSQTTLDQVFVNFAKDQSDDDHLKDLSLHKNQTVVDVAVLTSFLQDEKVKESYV

The subject of data set [1] is BHK-ABCA1 plasma membrane microdomains. The data set can be described thus: Cholesterol and phospholipid desorption from raft and non-raft domains of BHK-ABCA1 cells. In kind it is cell-based, hamster. The settings on record: 45 min. The method, then: Lipid labeling was performed as described previously with minor modifications. Briefly, BHK-cells were labeled with either 5 μCi/ml ^3[H] choline (Perkin-Elmer) for 48 h or 3 μCi/ml ^3[H] cholesterol (Perkin-Elmer) for 24 h, and then stimulated as described above. […] For each fraction, lipids were extracted by Folch and ^3[H]choline-labeled PtdCho, and SM were separated by TLC in the solvent system chloroform-methanol-water (65:35:4; v/v/v), and counted.
Supplementary file pone.0131997.s008.tif: S7 Fig CS-6253 desorbs phospholipids from raft and nonraft domains. […] After lipid extraction, ^3[H]cholesterol in each fraction was assessed for radioactivity. Radioactivity appearing in fractions corresponding to raft (1–5) and nonraft (6–10) material was pooled, and desorption of ^3[H]cholesterol and ^3[H]choline, from raft versus nonraft in the presence of apo A-I or CS-6253 was expressed as a percentage of control (100%, in the absence of acceptor) (S4 to S7 inset). […]
Sucrose density gradient fractionation was performed by ultracentrifugation (1,2). […] Ten fractions of 1ml were collected from top to bottom and analyzed for radioactivity, and lipid content ^3[H]-FC and ^3[H]-choline. […]

Take apolipoprotein A-I [apo A-I]: in the data set with ABCA1 (0.93 μM (appendix) / 0.96 μM (S3 Fig), DSP 500 μM, densitometry), the “ratio of ABCA1 dimer: monomer” value was 69.22%±0.25. Besides, in the data set with ABCA1 (BHK-ABCA1, DSP cross-linking), the “effect on ABCA1 oligomerization (in words)” value was “causes ABCA1 dimer formation”. The “cholesterol desorption from rafts and non-rafts” value in data set [1] is 25%.

The values are drawn from publication PMC4514675, “Novel Apo E-Derived ABCA1 Agonist Peptide (CS-6253) Promotes Reverse Cholesterol Transport and Induces Formation of preβ-1 HDL In Vitro” (PLoS ONE, 2015).
